Sequences and labels used below:
T1: CRF2R
T1 sequence (Q13324 whole entry, species assumed, looked up): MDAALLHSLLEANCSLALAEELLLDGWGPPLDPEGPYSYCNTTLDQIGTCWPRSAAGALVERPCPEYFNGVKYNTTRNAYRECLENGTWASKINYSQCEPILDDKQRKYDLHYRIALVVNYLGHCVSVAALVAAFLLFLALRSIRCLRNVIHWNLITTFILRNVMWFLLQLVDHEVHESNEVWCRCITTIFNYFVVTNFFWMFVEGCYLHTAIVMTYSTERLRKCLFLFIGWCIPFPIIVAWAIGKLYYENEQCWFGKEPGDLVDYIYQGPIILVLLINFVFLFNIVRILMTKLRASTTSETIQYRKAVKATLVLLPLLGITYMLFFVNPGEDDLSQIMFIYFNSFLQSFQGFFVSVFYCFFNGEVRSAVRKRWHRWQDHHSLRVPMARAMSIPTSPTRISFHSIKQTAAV

B1: SEQ ID NO 186 (peptide)
peptide: ZGPPISIDLPHWLLRKMIEIEKQEKEKQQAANNRLLLDTI
modifications: C-terminal amide
B2: SEQ ID NO 187 (peptide)
peptide: B1 peptide with H11W, W12F
modifications: C-terminal amide
B3: SEQ ID NO 188 (peptide)
peptide: B1 peptide with H11L, W12L
modifications: C-terminal amide
B4: SEQ ID NO 176 (peptide)
peptide: DNPSLSIDLPLQLLRTLLELARTQSQRERAEQNAIIFASV-NH2
B5: SEQ ID NO 174 (peptide)
peptide: DNPSLSIDLPLLLLRTLLELARTQSQRERAEQNAIIFASV-NH2
B6: SEQ ID NO 175 (peptide)
peptide: DNPSLSIDLPLILLRTLLELARTQSQRERAEQNAIIFASV-NH2
B7: SEQ ID NO 173 (peptide)
peptide: DNPSLSIDLPTYLLRTLLELARTQSQRERAEQNAIIFASV-NH2
B8: SEQ ID NO 171 (peptide)
peptide: ZGPPISIDVPFQLLRILIEIEKQEKEKQQATTNARILARV
modifications: C-terminal amide
B9: SEQ ID NO 172 (peptide)
peptide: B8 peptide with I16K, L17M
modifications: C-terminal amide
B10: SEQ ID NO 18 (peptide)
peptide: ZGPPISIDLPFQLLRKMIEIEKQEKEKQQATTNRLLLDRV
modifications: C-terminal amide
B11: SEQ ID NO 190 (peptide)
peptide: B1 peptide with H11F, W12V
modifications: C-terminal amide
B12: SEQ ID NO 19 (peptide)
peptide: B10 peptide with D38A
modifications: C-terminal amide
B13: SEQ ID NO 191 (peptide)
peptide: B1 peptide with H11F, W12L
modifications: C-terminal amide
B14: SEQ ID NO 189 (peptide)
peptide: B1 peptide with H11F, W12I
modifications: C-terminal amide
B15: SEQ ID NO 179 (peptide)
peptide: DNPSLSIDLPLHLLRTLLELARTQSQRERAEQNAIIFASV-NH2
B16: SEQ ID NO 180 (peptide)
peptide: DNPSLSIDLPFLLLRTLLELARTQSQRERAEQNAIIFASV-NH2
B17: SEQ ID NO 185 (peptide)
peptide: DNPSLSIDLPFHLLRTLLELARTQSQRERAEQNAIIFASV-NH2
B18: SEQ ID NO 184 (peptide)
peptide: DNPSLSIDLPFFLLRTLLELARTQSQRERAEQNAIIFASV-NH2
B19: SEQ ID NO 177 (peptide)
peptide: DNPSLSIDLPLYLLRTLLELARTQSQRERAEQNAIIFASV-NH2
B20: SEQ ID NO 182 (peptide)
peptide: DNPSLSIDLPFQLLRTLLELARTQSQRERAEQNAIIFASV-NH2
B21: SEQ ID NO 183 (peptide)
peptide: DNPSLSIDLPFYLLRTLLELARTQSQRERAEQNAIIFASV-NH2
B22: SEQ ID NO 178 (peptide)
peptide: DNPSLSIDLPLFLLRTLLELARTQSQRERAEQNAIIFASV-NH2
B23: SEQ ID NO 181 (peptide)
peptide: DNPSLSIDLPFILLRTLLELARTQSQRERAEQNAIIFASV-NH2

Changes are numbered by the printed parent chain. Ends that are not written are not given here.

One test addresses T1, CRF2R. Kind of test: cell-based or functional assay.
As to B1, the “CRF2R EC50” value came to 25.1 nM and the “CRF2R Emax” value stood at 100%.

Take B2: the “CRF2R EC50” value was found to be 10.3 nM and the “CRF2R Emax” value is 100%.

As to B3, the “CRF2R EC50” value came to 14.6 nM and the “CRF2R Emax” value is 100%.

With B4, the “CRF2R EC50” value turned out to be 12.6 nM and the “CRF2R Emax” value turned out to be 90.2%.

Consider B5, for which the “CRF2R EC50” value came to 4.42 nM and the “CRF2R Emax” value amounted to 97.2%.

In the case of B6, the “CRF2R EC50” value came out at 5.42 nM and the “CRF2R Emax” value was found to be 92.2%.

Regarding B7, the “CRF2R EC50” value worked out at 100 nM and the “CRF2R Emax” value was found to be 65.2%.

Regarding B8, the “CRF2R EC50” value came to 17.6 nM and the “CRF2R Emax” value stood at 100%.

Turning to B9, the “CRF2R EC50” value is 13.5 nM and the “CRF2R Emax” value was 100%.

As to B10, the “CRF2R EC50” value turned out to be 5.29 nM and the “CRF2R Emax” value turned out to be 97%.

For the molecule B11, the “CRF2R EC50” value turned out to be 39.6 nM and the “CRF2R Emax” value amounted to 31%.

For the molecule B12, the “CRF2R EC50” value amounted to 7.42 nM and the “CRF2R Emax” value is 75%.

B13: the “CRF2R EC50” value turned out to be 8.3 nM and the “CRF2R Emax” value came out at 100%.

For B14, the “CRF2R EC50” value is 7 nM and the “CRF2R Emax” value turned out to be 96%.

On to B15, for which the “CRF2R EC50” value was determined as 10.2 nM and the “CRF2R Emax” value was determined as 92.5%.

On to B16, for which the “CRF2R EC50” value amounted to 3.14 nM and the “CRF2R Emax” value came out at 95.7%.

Turning to B17, the “CRF2R EC50” value was found to be 8.98 nM and the “CRF2R Emax” value was 100%.

With B18, the “CRF2R EC50” value was determined as 3.72 nM and the “CRF2R Emax” value stood at 96.5%.

Take B19: the “CRF2R EC50” value was 5.63 nM and the “CRF2R Emax” value is 97.7%.

For B20, the “CRF2R EC50” value turned out to be 7.21 nM and the “CRF2R Emax” value was found to be 91.4%.

Take B21: the “CRF2R EC50” value was determined as 7.93 nM and the “CRF2R Emax” value stood at 100%.

In the case of B22, the “CRF2R EC50” value was 5.17 nM and the “CRF2R Emax” value was 96.5%.

For the molecule B23, the “CRF2R EC50” value came to 5.22 nM and the “CRF2R Emax” value worked out at 97.8%.

Another test concerns the target CRF1R. In words: cell-based or functional assay.
As to B1, the “CRF1R EC50” value stood at 323 nM and the “CRF1R Emax” value turned out to be 100%.

Consider B2, for which the “CRF1R EC50” value is 31.6 nM and the “CRF1R Emax” value was determined as 72%.

In the case of B3, the “CRF1R EC50” value stood at 162 nM and the “CRF1R Emax” value came out at 96%.

Regarding B4, the “CRF1R EC50” value amounted to 1000 nM and the “CRF1R Emax” value was 26.9%.

In the case of B5, the “CRF1R EC50” value turned out to be 1000 nM and the “CRF1R Emax” value was 29.1%.

B6: the “CRF1R EC50” value was 1000 nM and the “CRF1R Emax” value turned out to be 34.8%.

With B7, the “CRF1R EC50” value was 1000 nM and the “CRF1R Emax” value worked out at 6.05%.

Consider B8, for which the “CRF1R EC50” value is 206 nM and the “CRF1R Emax” value amounted to 99%.

Turning to B9, the “CRF1R EC50” value came to 1000 nM and the “CRF1R Emax” value worked out at 68%.

For the molecule B10, the “CRF1R EC50” value worked out at 106 nM and the “CRF1R Emax” value was 100%.

With B11, the “CRF1R EC50” value was greater than 100 nM and the “CRF1R Emax” value is 9%.

As to B12, the “CRF1R EC50” value was found to be 232 nM and the “CRF1R Emax” value was 83%.

As for B13, the “CRF1R EC50” value is 63.7 nM and the “CRF1R Emax” value was 65%.

In the case of B14, the “CRF1R EC50” value worked out at 62.2 nM and the “CRF1R Emax” value is 57%.

For the molecule B15, the “CRF1R EC50” value was 477 nM and the “CRF1R Emax” value was 78.9%.

Take B16: the “CRF1R EC50” value amounted to 125 nM and the “CRF1R Emax” value amounted to 99.3%.

As to B17, the “CRF1R EC50” value turned out to be 358 nM and the “CRF1R Emax” value is 95.8%.

Consider B18, for which the “CRF1R EC50” value worked out at 486 nM and the “CRF1R Emax” value is 77.3%.

Turning to B19, the “CRF1R EC50” value came out at 613 nM and the “CRF1R Emax” value turned out to be 69.2%.

As to B20, the “CRF1R EC50” value was 409 nM and the “CRF1R Emax” value amounted to 89.7%.

As to B21, the “CRF1R EC50” value was 415 nM and the “CRF1R Emax” value came to 57.5%.

Consider B22, for which the “CRF1R EC50” value worked out at 1000 nM and the “CRF1R Emax” value worked out at 55.7%.

Take B23: the “CRF1R EC50” value was determined as 154 nM and the “CRF1R Emax” value came out at 100%.
